The text below walks through data of patent CN102875676A (WUXI PROGRAMMED ARTIFICIAL MOLECULAR EVOLUTION CO LTD, dated 2013).

What is called Kd is the equilibrium constant for the complex coming apart.

Test [1] deals with T1, 重组人VEGF (recombinant human VEGF, VEGF-A) (human, UniProt P15692-4 27-191, limits assumed). Put plainly: Friguet method (solution equilibrium with human VEGF, ELISA of free antibody on immobilised VEGF), Fab. A general note: In an ELISA, binding on a coated surface is turned into a signal by an enzyme label.
T1 sequence (P15692 other isoform, or with tags, fused parts or gaps limits assumed): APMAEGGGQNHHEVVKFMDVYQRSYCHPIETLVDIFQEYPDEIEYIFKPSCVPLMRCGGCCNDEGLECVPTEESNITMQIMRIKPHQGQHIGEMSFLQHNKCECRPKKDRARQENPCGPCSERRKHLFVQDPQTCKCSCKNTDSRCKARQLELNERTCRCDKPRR
The target in test [2] is T1, 重组人VEGF (recombinant human VEGF, VEGF-A). Description: Friguet method, full-length antibody.

B1: 3D7 Fab (原型分子3D7) (Fab, V domains shown)
VH: EVQLVESGGGLVQPGGSLRLSCAASGFNIKDTYIHWVRQAPGKGLEWVAYIAPSYGYTRYADSVKGRFTISADTSKNTAYLQMNSLRAEDTAVYYCSRSSDASYSYSAWGQGTLVTVSS
VL: DIVMTQSPSSLSASVGDRVTITCRASQFVGFYIHWYQQKPGKAPKLLIYAASERATGVPSRFSGSRSGTDFTLTISSLQPEDFATYYCQQWLNNPFTFGQGTKVEIKR
notes: Tested as a Fab (phage supernatant in the screen); also called 原型抗体3D7
Turning to B1, the Kd in test [1] came out at 1.56 nM.

B2: 6B2 Fab (候选分子6B2) (Fab, V domains shown)
VH: EVQLVQSGGGVVQPRRSLRLSCAASGFDIYDDDIHWVRQAPGKGLEWVYIAPSYGYTRYADSVKGRFTVSRDNSKNTLYLQMNSLRAEDTSVYYCARSSDASYSYSAMDYWGQGTLVTVSS
VL: DIQMTQSPSSVSASIGDRVTITCRASQDASYSSAWYQQRPGKAPELLIYSAASYESGVPSRFSGSGSGTDFTLTISSLQAEDFATYYCQSSASPATFGQGTRLEIKR
Take B2: in test [1], the Kd is 0.276 nM.

B3: 全长6B2 (F6B2), full-length antibody (antibody, V domains shown)
VH: EVQLVQSGGGVVQPRRSLRLSCAASGFDIYDDDIHWVRQAPGKGLEWVYIAPSYGYTRYADSVKGRFTVSRDNSKNTLYLQMNSLRAEDTSVYYCARSSDASYSYSAMDYWGQGTLVTVSS
VL: DIQMTQSPSSVSASIGDRVTITCRASQDASYSSAWYQQRPGKAPELLIYSAASYESGVPSRFSGSGSGTDFTLTISSLQAEDFATYYCQSSASPATFGQGTRLEIKR
notes: expressed in DG44 cells; also called 6B2全长抗体分子
Turning to B3, in test [2], the Kd was determined as 0.022 nM.
